Experimental data published in paper PMC4484057.

How the values were obtained:
[1] = target: Gαi1-intYFP (UniProt P63096); assay: FRET or BRET; living HeLa cells cotransfected with Gαi1-intYFP, CFP-Gβ1 and Gγ2, 0.2% FBS overnight, before stimulation (t0); confocal, FRET efficiency at the plasma membrane; also Daple-depleted cells with or without Wnt5a, and Wnt3 stimulation, where FRET continued
[2] = target: GST-FZD7-CT (UniProt O75084); assay: pull-down; as a19, His-Gαi3 (GDP) with GST-FZD7-CT in the presence of His-Daple-CT WT

Gαi1-intYFP, sequence (P63096 whole entry): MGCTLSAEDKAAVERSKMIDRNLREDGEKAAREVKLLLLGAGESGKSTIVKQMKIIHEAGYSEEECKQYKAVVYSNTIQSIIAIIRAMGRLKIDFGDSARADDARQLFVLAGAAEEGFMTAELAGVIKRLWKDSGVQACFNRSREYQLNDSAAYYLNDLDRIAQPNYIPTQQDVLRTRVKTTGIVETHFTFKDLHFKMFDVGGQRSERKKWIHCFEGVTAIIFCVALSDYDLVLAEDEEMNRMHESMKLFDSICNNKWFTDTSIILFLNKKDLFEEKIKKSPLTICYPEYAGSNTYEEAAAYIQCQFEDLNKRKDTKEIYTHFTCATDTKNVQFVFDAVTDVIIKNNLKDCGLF
His-Gαi3, sequence (P08753 whole entry): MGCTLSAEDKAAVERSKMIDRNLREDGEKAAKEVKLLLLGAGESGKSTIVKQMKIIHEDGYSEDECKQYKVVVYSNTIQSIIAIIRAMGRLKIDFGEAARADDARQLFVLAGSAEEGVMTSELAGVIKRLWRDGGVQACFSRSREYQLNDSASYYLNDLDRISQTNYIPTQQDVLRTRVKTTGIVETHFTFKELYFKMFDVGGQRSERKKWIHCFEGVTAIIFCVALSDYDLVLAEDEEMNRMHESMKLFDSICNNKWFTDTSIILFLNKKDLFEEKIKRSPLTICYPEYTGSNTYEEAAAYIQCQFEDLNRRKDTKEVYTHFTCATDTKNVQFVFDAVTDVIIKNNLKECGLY

FRET efficiency [1]	fold increase of binding in the presence of m2 [2] [fold]	Substance
0.36		CFP-Gβ1 with Gγ2 (from UniProt P62873 1-340; P59768 1-71) (complex)
	5	His-Gαi3 (from UniProt P08753 1-354) (natural protein)
